Source: paper PMC12364357, “Glutamate dehydrogenase from Pantoea ananatis: A new bacterial enzyme with dual coenzyme specificity” (PLOS One, 2025)

How the values were obtained:
Assay in all cases: purified protein
[1] = tested on: NC(=O)c1ccc[n+]([C@@H]2O[C@H](COP(=O)(O)OP(=O)(O)OC[C@H]3O[C@@H](n4cnc5c(N)ncnc54)[C@H](O)[C@@H]3O)[C@@H](O)[C@H]2O)c1; conditions: oxidative deamination, 150 mM L-Glu, 80 mM CHES pH 9.5, 25 °C, pH 9.5
[2] = tested on: NC(=O)C1=CN([C@@H]2O[C@H](COP(=O)(O)OP(=O)(O)OC[C@H]3O[C@@H](n4cnc5c(N)ncnc54)[C@H](OP(=O)(O)O)[C@@H]3O)[C@@H](O)[C@H]2O)C=CC1; conditions: reductive amination, 5 mM α-KG, 50 mM NH4Cl, 80 mM Tris-HCl pH 8.0, 25 °C, pH 8.0
[3] = tested on: O=C(O)CCC(=O)C(=O)O; conditions: reductive amination, 0.2 mM NADH, 50 mM NH4Cl, 80 mM Tris-HCl pH 8.0, 25 °C, pH 8.0
[4] = tested on: NC(=O)C1=CN([C@@H]2O[C@H](COP(=O)(O)OP(=O)(O)OC[C@H]3O[C@@H](n4cnc5c(N)ncnc54)[C@H](O)[C@@H]3O)[C@@H](O)[C@H]2O)C=CC1; conditions: reductive amination, 5 mM α-KG, 50 mM NH4Cl, 80 mM Tris-HCl pH 8.0, 25 °C, pH 8.0
[5] = tested on: NC(=O)c1ccc[n+]([C@@H]2O[C@H](COP(=O)(O)OP(=O)(O)OC[C@H]3O[C@@H](n4cnc5c(N)ncnc54)[C@H](OP(=O)(O)O)[C@@H]3O)[C@@H](O)[C@H]2O)c1; conditions: oxidative deamination, 150 mM L-Glu, 80 mM imidazole pH 6.0, 25 °C, pH 6.0

GdhPa (Pantoea ananatis LMG 5342)
Km [1]: 900 ± 60 µM | Vmax [1]: 11.6 µmol/min/mg | kcat [1]: 8.97 s⁻¹ | kcat/Km [1]: 9960 M⁻¹ s⁻¹ | Km [2]: 78 ± 17 µM | Vmax [2]: 6.29 µmol/min/mg | kcat [2]: 4.87 s⁻¹ | kcat/Km [2]: 62500 M⁻¹ s⁻¹ | Km [3]: 1300 ± 210 µM | Vmax [3]: 5.93 µmol/min/mg | kcat [3]: 4.6 s⁻¹ | kcat/Km [3]: 3540 M⁻¹ s⁻¹ | Km [4]: 70 ± 14 µM | Vmax [4]: 5.43 µmol/min/mg | kcat [4]: 4.21 s⁻¹ | kcat/Km [4]: 60100 M⁻¹ s⁻¹ | Km [5]: 440 ± 50 µM | Vmax [5]: 0.67 µmol/min/mg | kcat [5]: 0.52 s⁻¹ | kcat/Km [5]: 1180 M⁻¹ s⁻¹
